Holding throughout (type): binding
Assay [1] deals with T1, von Willebrand Factor (vWF) (Homo sapiens, UniProt P04275). The assay is described as follows: Peptide-Toyopearl affinity column chromatography of Koate; vWF in fractions by ELISA, protein by A280. Also on record: Koate® containing vWF, FVIII, and albumin was a product of Bayer Corp; tissue Bayer Corp. (Clayton, N.C.) Koate; host or cells: plasma-derived concentrate (Koate). The conditions noted are these: for % vWF by ELISA, flow through / % area of acid peak / % vWF by ELISA, acid / % vWF by ELISA, salt: Table 2; for % vWF by ELISA, flow through / % area of acid peak: 1 ml column; for % area of acid peak: 2% acetic acid peak; for % vWF by ELISA, salt: NaCl gradient eluate. The method, then: The gel slurry (1 ml wet gel mixed with 2 ml degassed PBS and 1 M sodium chloride buffer) was transferred into a packing device (from PerSeptive Biosystems, Framingham, Mass.) and packed into a PEEK column (0.75 cm×5 cm from Alltech, Deerfield, Ill.) at a flow rate of 8 ml/min. […] The column was washed with at least 4 bed volumes of binding buffer (10 mM HEPES, 100 mM NaCl, 5 mM calcium chloride at pH 7) and elution buffer (2% acetic acid), then equilibrated with binding buffer.
Protein concentrations were monitored by A280 absorbance. Samples were characterized using vWF ELISA. Briefly, anti-vWF antibody (from Accurate Inc. N.Y.) was coated on each well of a microliter plate (96 wells from Corning, N.Y. 14831) overnight using 100 μl solution of antibody diluted 200 times in 0.1M sodium bicarbonate buffer at pH 9.6. Each well was then blocked with 300 μl solution of 1% BSA in PBS for 1 hour at room temperature. The plate was washed 5 times with PBS. Pure vWF and the collected samples were diluted to a concentration range between 0.02 to 0.2 μg/ml using 1 mg/ml BSA in PBS. Each sample (100 μl) was incubated with the anti-vWF coated well for 1 hour at room temperature and the plate was washed 5 times with PBS plus 0.1% Tween 20. A second anti-vWF antibody with horse radish peroxidase (HRP) conjugate (from DAKO, Glostrup, Denmark) at a concentration of 1 to 500 dilution was introduced to each well and incubated for i hour at room temperature. The plate was washed again with PBS plus 0.1% Tween 20 for 5 times. Substrate ABTS (2,2'-azino-bis(3-ethylbenz-thiazoline-6-sulfonic acid)) and H2 O2 were used for the kinetic reading at 410 nm using Bio Kinetics Reader from BioTek (Winooski, Vt.).
Peptide RLRSFY was directly synthesized (25) onto a modified Toyopearl resin (--(β-Ala)2 -Toyopearl) and the resin was packed in a 1 ml column (0.7×2.5 cm). Koate (Bayer's product containing vWF, FVIII and human albumin) was applied to the column at a flow rate of 2 ml/min in binding buffer (10 mM HEPES, 5 mM calcium chloride and 0.1M NaCl, pH 7). After 1 min of washing in binding buffer, a linear gradient from 0.1 to 1M NaCl in HEPES buffer was applied to the column over 5 min. The elution with high salt concentration was maintained for another 1 min, before 2% acetic acid was used to elute the retained protein. […] The remainder was eluted using 2% acetic acid. In a control experiment in which no peptide was attached to the resin (only --(β-Ala)2 -Toyopearl), almost all protein from 0.1 ml Koate flowed through the column under the same conditions used for the peptide-Toyopearl column.
Single conservative amino acid substitutions at the first three positions of RLRSFY were synthesized directly on (β-Ala)2 -Toyopearl. Amino acid substitutions used for both positions of arginine (R) were histidine (H), lysine (K), glutamine (Q), and asparagine (N). Substitutions for leucine (L) include isoleucine (I), valine (V), phenylalanine (F), and tyrosine (Y). These individual substitutions created 12 unique peptide sequences. (SEQ ID NOS: 1 to 12 ) After the resins were packed into 1 ml glass columns, 0.1 ml Koate was applied to each column and eluted with sodium chloride gradient and 2% acetic acid, same as in FIG. 1. Fractions were collected and analyzed for A280 absorbance and ELISA. […] The substitution of the R at the third position from the N-terminus had no effect on the capture of vWF from Koate. […] Maximum vWF binding occurred when L was substituted for V.

In assay [2] the target is T1, von Willebrand Factor (vWF). The assay is described as follows: Purification of vWF from cryoprecipitate PEG filtrate of human plasma on peptide-Toyopearl column. The conditions noted are these: PEG filtrate; 0.15M and 0.35M NaCl washes, 2% acetic acid elution. The method, then: The starting material called PEG filtrate was processed from human plasma cryoprecipitate at Bayer Corp. (Clayton, N.C.). This material contained vWF, FVIII, significant fibrinogen, fibronectin, and IgM. The PEG filtrate was treated with 1% TNBP (tri-n-butylphosphate) and 0.5 % Tween 20 (from Aldrich) at 30° C. for 3 hours. After the treatment, the mixture was directly injected onto peptide affinity columns.
Confirmation of the purification of vWF on RVRSFY-Toyopearl was performed using PEG filtrate as the starting material (FIG. 2). Inclusion of a 0.15M NaCl wash and an additional 0.35M NaCl wash removed the bulk of the albumin. Bound vWF was eluted with 2% acetic acid.
The PEG filtrate was treated with virus inactivation reagents, 1% TNBP and 0.5% Tween 20 at 30° C. for 3 hours. The treated PEG fitrate was injected directly into the column. […] Approximately 74% of the total vWF was eluted with 0.35M CaCl2 (small peak at 10 min).

Assay [3] has the same target. Nature of the assay: Batch adsorption isotherm of vWF onto peptide-Toyopearl, Langmuir fit. Also noted: Koate® containing vWF, FVIII, and albumin was a product of Bayer Corp; tissue Bayer Corp. (Clayton, N.C.) Koate; host or cells: plasma-derived concentrate (Koate). The conditions noted are these: vWF around 1000 kDa; peptide directly synthesized on Toyopearl; Langmuir fit. The method, then: Adsorption isotherms were measured in a batch mode. In a siliconized microcentrifuge tube, 0.1 ml wet gel was mixed with vWF solution of 10 mM HEPES, 5 mM calcium chloride and 0.5M sodium chloride at pH 7 in a total volume of 0.3 ml. The microcentrifuge tube was incubated at 25° C. for 20 minutes, then the gel was separated from the solution by microcentrifugation. The concentrations of vWF in solutions were measured both by absorbance at 280 nm with an extinction coefficient of 1.2 for 1 mg/ml vWF and by ELISA.
Interactions between RVRSFY directly synthesized on Toyopearl and vWF were studied through adsorption isotherm measurements. Because vWF consists of a wide range of molecular weights, complex theoretical analyses are required to obtain binding constants from the adsorption isotherms. In addition, different multimers of vWF may have different binding constants. To simplify the analyses, vWF with molecular weight around 1000 kDa was fractionated from Koate using size exclusion chromatography with Bio-Gel A-5M gel (BioRad) and analyzed by nonreducing agarose gel electrophoresis.
An increase of peptide density increases adsorption of vWF. A minimum peptide density, 32 mg peptide Ac-RVRSFYK/ml resin ([…]), is required for the binding of vWF to the peptide. The Langmuir equation was used to fit these isotherms, and the association constants and maximum capacities obtained from curve fits are listed in Table 3. They show an increase of association constant and maximum binding capacity with an increase of peptide density mobilized on the Toyopearl resin.

No end group written: not given here.

On to “RVRSFY (not fully specified (C-terminus))”, for which, in assay [1] (0.1 ml Koate), the “% vWF by ELISA, flow through” value was found to be 0.09% and the “% area of acid peak” value is 30.2%. In assay [1] (2% acetic acid eluate), the “% vWF by ELISA, acid” value was 55.78%. Further, the “% vWF by ELISA, salt” value in assay [1] is 0.08%. The “purification of vWF (SDS-PAGE)” value in assay [2] is listed as “highly purified”. In assay [3], the Association constant was 1.31e+06 M⁻¹.
As for “RLKSFY (not fully specified (C-terminus))”, in assay [1] (0.1 ml Koate), the “% vWF by ELISA, flow through” value was found to be 0.60% and the “% area of acid peak” value is 25.1%. For the same substance, the “% vWF by ELISA, acid” value in assay [1] (2% acetic acid eluate) was 45.58%. In addition, the “% vWF by ELISA, salt” value in assay [1] is 3.59%.
“RYRSFY (not fully specified (C-terminus))”: in assay [1] (0.1 ml Koate), the “% vWF by ELISA, flow through” value is reported as 1.65% and the “% area of acid peak” value is recorded as 27.1%. Further, the “% vWF by ELISA, acid” value in assay [1] (2% acetic acid eluate) is 51.72%. The “% vWF by ELISA, salt” value in assay [1] was determined as 0.14%.
Consider “RLHSFY (not fully specified (C-terminus))”, for which, in assay [1] (0.1 ml Koate), the “% vWF by ELISA, flow through” value was determined as 1.77% and the “% area of acid peak” value is listed as 24.9%. For the same substance, the “% vWF by ELISA, acid” value in assay [1] (2% acetic acid eluate) came out at 50.72%. Moreover, the “% vWF by ELISA, salt” value in assay [1] is reported as 2.89%.
Take “RIRSFY (not fully specified (C-terminus))”: in assay [1] (0.1 ml Koate), the “% vWF by ELISA, flow through” value is recorded as 1.92% and the “% area of acid peak” value came out at 28.0%. In addition, the “% vWF by ELISA, acid” value in assay [1] (2% acetic acid eluate) is recorded as 44.78%. Further, the “% vWF by ELISA, salt” value in assay [1] came to 4.09%.
Consider “QLRSFY (not fully specified (C-terminus))”, for which, in assay [1] (0.1 ml Koate), the “% vWF by ELISA, flow through” value is 29.45% and the “% area of acid peak” value worked out at 9.2%. Besides, the “% vWF by ELISA, acid” value in assay [1] (2% acetic acid eluate) came to 2.20%. Further, the “% vWF by ELISA, salt” value in assay [1] turned out to be 11.69%.
Take “RFRSFY (not fully specified (C-terminus))”: in assay [1] (0.1 ml Koate), the “% vWF by ELISA, flow through” value is 0.20% and the “% area of acid peak” value was 27.8%. For the same substance, in assay [1] (2% acetic acid eluate), the “% vWF by ELISA, acid” value is on record as 47.96%. In addition, the “% vWF by ELISA, salt” value in assay [1] is reported as 0.07%.
The like results for “RLNSFY (not fully specified (C-terminus))” were, in that order, 0.26%, 24.5%, 47.68% and 1.50%.
For “RLQSFY (not fully specified (C-terminus))”, in assay [1] (0.1 ml Koate), the “% vWF by ELISA, flow through” value was found to be 0.46% and the “% area of acid peak” value was determined as 20.1%. Further, the “% vWF by ELISA, acid” value in assay [1] (2% acetic acid eluate) was found to be 50.68%. Also, the “% vWF by ELISA, salt” value in assay [1] was found to be 0.54%.
For “KLRSFY (not fully specified (C-terminus))” the same measures were 1.03%, 27.1%, 26.94% and 9.83%.
For “HLRSFY (not fully specified (C-terminus))”, in assay [1] (0.1 ml Koate), the “% vWF by ELISA, flow through” value was 0.75% and the “% area of acid peak” value is on record as 26.7%. For the same substance, the “% vWF by ELISA, acid” value in assay [1] (2% acetic acid eluate) came out at 32.7%. Also, in assay [1], the “% vWF by ELISA, salt” value worked out at 0.28%.
Turning to “RLRSFY (not fully specified (C-terminus)) [RLRSFY-Toyopearl, phage-library-derived peptide directly synthesized onto modified Toyopearl resin (--(β-Ala)2-Toyopearl)]”, the “protein that did not bind to the peptide resin or was loosely bound and eluted by sodium chloride” value in assay [1] (0.1 ml Koate) is on record as “about 60%”. Further, in assay [1] (0.1 ml Koate (input A280 7.8), flow through fraction ×4 ml), the “A280, flow through” value is reported as 0.071. Further, the “A280, acid” value in assay [1] (0.1 ml Koate, 2% acetic acid fraction ×4 ml) amounted to 0.070. Moreover, the “A280, salt” value in assay [1] (0.1 ml Koate, NaCl gradient 0.1 to 1M fraction ×12 ml) is 0.014. Further, in assay [1] (Koate, 2% acetic acid), the “vWF recovered in the acid peak” value is recorded as “Approximately one-half”. In addition, the “retention of vWF by column” value in assay [1] (Koate, could not be eluted by sodium chloride up to 1M) is “Most of the vWF was retained”. For the same substance, the “% vWF activity by ELISA, acid” value in assay [1] (Table 1, 0.1 ml Koate, 2% acetic acid eluate) is reported as 49.78%. In addition, the “% vWF activity by ELISA, salt” value in assay [1] (Table 1, 0.1 ml Koate, NaCl eluate) came out at 0.09%. Also, the “% vWF activity by ELISA, flow through” value in assay [1] (Table 1, 0.1 ml Koate, flow through) is 1.6%. The “% recovery (A280 mass balance)” value in assay [1] (total protein recovered from column) is given as 95%.
Regarding “NLRSFY (not fully specified (C-terminus))”, in assay [1] (0.1 ml Koate), the “% vWF by ELISA, flow through” value was 19.96% and the “% area of acid peak” value is listed as 14.8%. In addition, the “% vWF by ELISA, acid” value in assay [1] (2% acetic acid eluate) is given as 6.98%. Moreover, the “% vWF by ELISA, salt” value in assay [1] is given as 11.88%.
